Experimental findings from patent publication US20220267458A1 (Innovent, published 2022) are described below.

As usually defined, the Kd is the concentration at which binding is half-saturated. The low end stands for higher affinity, the high end for lower affinity. The term koff denotes the first-order rate constant of dissociation. Low readings indicate slow dissociation, high ones fast dissociation. By kon is commonly meant the second-order rate constant of association. In general, IC50 refers to the concentration that gives 50% inhibition. High values mean a need for much substance, low ones inhibition by little substance. In general, EC50 (read off the curve) refers to the concentration giving half of the maximal effect. A high value points to a need for much substance.

Test [1] concerns the target T1, human GITR-His (human, UniProt Q9Y5U5 26-161).
T1 construct: Bought from Acro biosystems; also called GITR-His (Acro biosystems); antigen GITR-His
T1 sequence: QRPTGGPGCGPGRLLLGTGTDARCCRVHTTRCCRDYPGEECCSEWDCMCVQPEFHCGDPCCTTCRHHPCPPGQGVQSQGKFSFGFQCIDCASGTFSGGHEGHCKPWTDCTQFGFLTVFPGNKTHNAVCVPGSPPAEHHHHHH
Put plainly: ForteBio BLI, antibody on AHQ tip, human GITR-His 100 nM in solution, 1:1 model. The protocol:
(§1) (2) Experimental procedure: 100 μl of SD buffer and antibodies (hcIgG-02, hcIgG-03, hcIgG-04, hcIgG-07, hcIgG-09, hcIgG-10, hcIgG-16 and hcIgG-20, control antibody), GITR-His (Acro biosystems) were added to a 96-well half-volume black polystyrene microplate. The plate was arranged according to the positions of the samples, the position of the sensor was selected, and the operation procedures were set as: Baseline, Loading ˜1 nm, Baseline, Association and Dissociation, each running for a time depending on the binding and dissociation rates of the sample, at a rotation speed of 400 rpm and a temperature of 30° C.
(3) A 1:1 binding model was adopted for kinetic analysis.
(In general: In BLI a coated tip is dipped into the sample, and binding shifts an interference pattern.)

For test [2], the target named is T2, human GITR overexpressed on CHO cells (CHO-GITR) (human, UniProt Q9Y5U5 26-241).
T2 construct: whole, on cells; also called cell surface GITR protein; antigen expressed on the cell surface
T2 sequence (looked up): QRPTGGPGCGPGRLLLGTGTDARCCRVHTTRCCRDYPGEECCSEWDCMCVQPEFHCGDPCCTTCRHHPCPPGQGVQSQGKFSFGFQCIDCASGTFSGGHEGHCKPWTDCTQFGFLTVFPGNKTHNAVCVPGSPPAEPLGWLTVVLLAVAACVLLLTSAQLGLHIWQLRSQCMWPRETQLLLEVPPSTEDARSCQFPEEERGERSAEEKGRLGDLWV
In words: flow cytometry on CHO-GITR cells, PE anti-human Fc detection, MFI; direct binding titration, the table row is labelled IC50, nM is taken from the concentration axis. The procedure:
(1) Cell preparation: The pCHO1.0 vector (Invitrogen) carrying human GITR cDNA cloned to a multiple cloning site (MCS) was transfected into Chinese hamster ovary cancer cells (CHO) (Invitrogen) to produce human GITR-overexpressing CHO cells (CHO-GITR), the CHO cells (CHO-GITR) overexpressing human GITR on the surface thereof were counted, and diluted to 1×10⁶ cells/mL, and added to a U-bottom 96-well plate with 100 μL/well.
(1) Detection: The cell suspension was centrifuged at 400 g for 5 min to remove the cell medium. Serial dilutions of the sample were added to a U-shaped plate, and then the cells were resuspended and added to the plate with 100 μL/well. The plate was put onto the ice to stand for 30 min The cell suspension was centrifuged at 400 g for 5 min, and the supernatant was discarded. The cells were washed once with PBS, and then centrifuged at 400 g for 5 min to remove PBS. 100 μL of the solution of PE-conjugated anti-human Fc antibody (Jackson Immuno Research) diluted at a ratio of 1:200 was added to each well, and the cells were incubated in dark on the ice for 30 min The cell suspension was centrifuged at 400 g for 5 min, and the supernatant was discarded. The cells were washed once with PBS. The cells were resuspended with 100 μL of PBS.
A general note: In flow cytometry, cells or beads pass a laser one at a time.

Test [3] concerns the target GITR protein overexpressed on Hela cells (Hela-GITR-NF-κB-Luc-Rep). In words: cell-based or functional assay.
Test [4] concerns the target T2, human GITR overexpressed on CHO cells …. Put plainly: flow cytometry on CHO-GITR cells, PE anti-human Fc detection, MFI.
Test [5] has as its target T1, human GITR-His. Put plainly: ForteBio BLI, antibody on AHQ tip, human GITR-His 100 nM in solution. The protocol: as §1
In this experiment, binding kinetics and affinity for the antibody hcIgG-20 before humanization and the antibody HzhcIgG-20 after humanization were determined using the ForteBio method in the same way as in Example 3. ForteBio results are listed in Table 4. hcIgG-20 and HzhcIgG-20 retain the binding ability to GITRs, and the affinity is higher than the control antibody TRX518.

B1: hcIgG-16 (antibody, V domains shown)
VH: QVQLQESGGGSVQAGGSLRLSCAASGYTYNKYSWGWFRQAPGKEREGVAGIDSDGSTSYADSVKGRFTISKDNTKNTLYLQMNSLKPEDTAMYYCAASDWVSAIQALGVLAVRPYEYWGQGTQVTVSS
notes: also called heavy-chain antibody of Nb-16
In test [1], B1 had a dissociation constant (Kd) of 9.81 nM, an off-rate (koff) of 0.00114 s⁻¹ and a kon of 117000 M⁻¹ s⁻¹. The molecule also yielded an IC50 in test [2] of 34.1 nM.

B2: hcIgG-02 (antibody, V domains shown)
VH: QVQLQESGGGSVQAGGSLRLSCAASRDTYTRYFMGWFRQTPGKEGEGVAVLLPGGDYTFYADSVKGRFTITQDSAKNTVYLQMNSLKPEDTAMYYCAADVTVGSRWSQASNYNYWGQGTQVTVSS
notes: also called heavy-chain antibody of Nb-02
In test [1], B2 yielded a dissociation constant Kd of 6.33 nM, a koff of 0.00214 s⁻¹ and a kon of 338000 M⁻¹ s⁻¹. Moreover, in test [2], the IC50 came to 41.2 nM.

B3: HzhcIgG-20 (antibody, V domains shown)
VH: QVQLQESGGGLVQPGGSLRLSCAASGYSRTSRWMAWFRQAPGKGLEGVAAIYTGGSSTLYADSVKGRFTISRDNAKNSVYLQMNSLRAEDTAVYYCAADKLAGDFWLVDRWRAWGQGTLVTVSS
notes: Humanized heavy-chain antibody without light chain; also called humanized hcIgG-20; humanized HcIgG
B3: the “EC50 for the activation (NF-κB luciferase reporter)” value in test [3] came out at 0.663 nM. Also, the concentration for a half-maximal effect (EC50 (read off the curve)) in test [4] is approximately 2 nM. Besides, in test [5], binding was characterised by a dissociation constant (Kd) of 4 nM, the koff is 0.00128 s⁻¹ and the on-rate constant (kon) stood at 321000 M⁻¹ s⁻¹.

B4: hcIgG-03 (antibody, V domains shown)
VH: QVQLQESGGGSVQAGGSLRLSCAASGYTYSGYCMGWFRQAPGKEHEGVASIVSGLGRPYYADSVKGRFTISQDNAKNTVYLQMNSLKPEDTAMYYCAAEWATKLCSEIPATEWDYWGQGTQVTVSS
notes: also called heavy-chain antibody of Nb-03
B4: in test [1], the Kd was 5.3 nM, the koff was 0.00172 s⁻¹ and the kon was found to be 324000 M⁻¹ s⁻¹. In test [2], this molecule showed a concentration for half-maximal inhibition (IC50) of 102 nM.

B5: hcIgG-09 (antibody, V domains shown)
VH: QVQLQESGGGLVQPGGSLRLSCGASGFTFSSTAMWWFRQAPGKGLEWVSSITSDVSGTYYADSVQGRFTISRDNGKNTVYLQMNSLRSEDTALYYCATSCGFSGGTWSCKYRGQGTQVTVSS
notes: also called heavy-chain antibody of Nb-09
In test [1], B5 registered a Kd of 1.89 nM, an off-rate constant (koff) of 0.000487 s⁻¹ and a kon of 257000 M⁻¹ s⁻¹. Further, the concentration for half-maximal inhibition (IC50) in test [2] amounted to 4.89 nM.

B6: hcIgG-07 (antibody, V domains shown)
VH: QVQLQESGGGLVQAGGSLKLSCTVSGFAFGSSHMSWVRRAPGKGLEWVSTIHSGGGFGDYANSVQGRFTISRDVAKNTLYLQMNSLKPEDTAIYYCALATDWRKPPGQGTQVTVSS
notes: also called heavy-chain antibody of Nb-07
For the molecule B6, in test [1], the equilibrium dissociation constant (Kd) turned out to be 4.08 nM, the off-rate (koff) amounted to 0.00099 s⁻¹ and the on-rate (kon) came out at 243000 M⁻¹ s⁻¹. In test [2], this molecule displayed a concentration for half-maximal inhibition (IC50) of 1.44 nM.

B7: hcIgG-10 (antibody, V domains shown)
VH: QVQLQESGGGLVQPGGSLRLSCAASGFAFGSSHMSWVRRAPGKGLEWVSTIHSGGGFGDYANSVQGRFTISRDVAKNTLYLQMNSLKPEDTAIYYCALATDWRKPPGQGTQVTVSS
notes: also called heavy-chain antibody of Nb-10
As to B7, in test [1], the Kd stood at 3.22 nM, the dissociation rate constant (koff) was 0.000742 s⁻¹ and the kon was 231000 M⁻¹ s⁻¹. The molecule further gave an IC50 in test [2] of 1.47 nM.

B8: hcIgG-20 (antibody, V domains shown)
VH: QVQLQESGGGSVQAGGSLRLSCASSGYSRTSRWMAWFRQAPGKEREGVAAIYTGGSSTLYANSMADRVTISQDNAKNTVYLRMNNLKPEDTAMYYCAADKLAGDFWLVDRWRAWGQGTQVTVSS
notes: also called heavy-chain antibody of Nb-20
As for B8, the “EC50 for the activation (NF-κB luciferase reporter)” value in test [3] came out at 0.689 nM. Moreover, the “EC50 (read off the curve)” value in test [4] is approximately 2 nM. Moreover, in test [1], the Kd was 1.85 nM, the koff was found to be 0.000646 s⁻¹ and the kon was found to be 349000 M⁻¹ s⁻¹. Further, in test [2], the IC50 amounted to 0.511 nM. In addition, in test [5], the dissociation constant Kd came out at 4.35 nM, the dissociation rate constant (koff) is 0.000917 s⁻¹ and the kon came to 211000 M⁻¹ s⁻¹.
